Results taken from patent publication US11999771B2, “IL-7Rαγc ligand immunoglobulin fusion proteins” (MEDIKINE, INC., priority 2022, dated 2024).

Assay: Pharmacokinetics of the IL-7Rαγc IgG2-Fc fusion protein in non-human primates (serum level quantified by TF-1-7Rα STAT5 phosphorylation bioassay)
Format: in vivo
Conditions: single dose of 1 mg/kg
Procedure: A pharmacokinetic study of an IL-7Rαγc IgG2-Fc fusion protein was performed in non-human primates. The IL-7Rαγc IgG2-Fc fusion having SEQ ID NO: 45 was administered intravenously (IV), subcutaneously (SC), or intramuscularly (IM) with a single dose of 1 mg/kg into each non-human primate (n=10). Blood samples were collected at times post-dose into serum separator vials. Samples were centrifuged at 10,000× g for 5 min at 4° C. followed by transferring the serum to a new tube. Samples were frozen and stored at −80° C. prior to testing.
The TF-1-7Rα STAT5 phosphorylation bioassay was used to quantity the amount of the IL-7Rαγc IgG2-Fc fusion in each of the serum samples. Three-fold serial dilutions of each serum sample or a compound reference standard in starvation media were added to the cells and incubated for 30 mins with the cells. Cells extracts were prepared and the quantity of phosphorylated STAT5 was determined as described in Example 3. The IL-7Rαγc IgG2-Fc fusion protein concentration in each serum sample was calculated using a standard curve generated from the reference standard.

B1: hu-IgG2-Fc-(GS)10GG-IL-7Raγc (protein)
chain: ERKSSVECPPCPAPPVAGPSVFLFPPKPKDTLMISRTPEVTCVVVDVSHEDPEVQFNWYVDGVEVHNAKTKPREEQFNSTFRVVSVLTVVHQDWLNGKEYKCKVSNKGLPAPIEKTISKTKGQPREPQVYTLPPSREEMTKNQVSLTCLVKGFYPSDIAVEWESNGQPENNYKTTPPMLDSDGSFFLYSKLTVDKSRWQQGNVFSCSVMHEALHNHYTQKSLSLSPGAGSGSGSGSGSGSGSGSGSGSGGGWGIPWCTLDPGSLQCAWLGKHGGGGSGGVVCQDWEGVELCWQGG
notes: IL-7R agonist
bioavailability % F for IM administration (intramuscular vs intravenous): 117%
bioavailability % F for SC administration (subcutaneous vs intravenous): 112%
